# Assay results as given in article PMC5173322, “Neurodegenerative disease mutations in TREM2 reveal a functional surface and distinct loss-of-function mechanisms” (eLife, 2016).
# Target: the molecule itself
# Assay: SEC; preparative SEC of NHD mutant ectodomains harvested from 293F suspension cells; fractions analysed by anti-6His Western blot
row,Protein,binding result
1,"human TREM2 ectodomain Y38C (domain or fragment, UniProt Q9NZC2 19-134, looked up, TREM2, human, ectodomain, limits as the WT ectodomain (amino acids 19-134), Nasu-Hakola disease mutation Y38C; it was detected by anti-6His Western blot; also called NHD mutant Y38C; source: Freestyle 293F cells, transfected, secreted; harvested for preparative SEC; not shown: His6, C-terminal, kept) HNTTVFQGVAGQSLQVSCPCDSMKHWGRRKAWCRQLGEKGPCQRVVSTHNLWLLSFLRRWNGSTAITDDTLGGTLTITLRNLQPHDAGLYQCQSLHGSEADTLRKVLVEVLADPLD",binds
2,"human TREM2 ectodomain V126G (domain or fragment, UniProt Q9NZC2 19-134, looked up, TREM2, human, ectodomain, limits as the WT ectodomain (amino acids 19-134), Nasu-Hakola disease mutation V126G; it was detected by anti-6His Western blot; also called NHD mutant V126G; source: Freestyle 293F cells, transfected, secreted; harvested for preparative SEC; not shown: His6, C-terminal, kept) HNTTVFQGVAGQSLQVSCPYDSMKHWGRRKAWCRQLGEKGPCQRVVSTHNLWLLSFLRRWNGSTAITDDTLGGTLTITLRNLQPHDAGLYQCQSLHGSEADTLRKVLGEVLADPLD",binds
3,"human TREM2 ectodomain T66M (domain or fragment, UniProt Q9NZC2 19-134, looked up, TREM2, human, ectodomain, limits as the WT ectodomain (amino acids 19-134), Nasu-Hakola disease mutation T66M; it was detected by anti-6His Western blot; also called NHD mutant T66M; source: Freestyle 293F cells, transfected, secreted; harvested for preparative SEC; not shown: His6, C-terminal, kept) HNTTVFQGVAGQSLQVSCPYDSMKHWGRRKAWCRQLGEKGPCQRVVSMHNLWLLSFLRRWNGSTAITDDTLGGTLTITLRNLQPHDAGLYQCQSLHGSEADTLRKVLVEVLADPLD",binds
